Values of other authors as cited in patent US20200222508A1 (Arecor Limited, priority 2016, published 2020).

Settings: in vivo

| Substance | circulating half-life |
| --- | --- |
| Albiglutide: GLP-1 dimer fused to human albumin, SEQ ID NO: 5 | 96 to 170 h |
| Lixisenatide: analogue of exendin-4, proline omitted at position 38, six lysine residues added at C-terminal, SEQ ID NO: 8 | 2 to 4 h |
| Dulaglutide: GLP-1 analogue consisting of GLP-1(7-37) covalently linked to an Fc fragment of human IgG4, SEQ ID NO: 6 | approximately 5 days |
